# In publication PMC3838848 (BioMed Research International, 2013):
# B1: POZ/BTB domain of KCTD6 (domain or fragment, human, UniProt Q8NC69 10-110, looked up)
# chain: MTDPVTLNVGGHLYTTSLTTLTRYPDSMLGAMFGGDFPTARDPQGNYFIDRDGPLFRYVLNFLRTSELTLPLDFKEFDLLRKEADFYQIEPLIQCLNDPKP
# notes: KCTD6, human, POZ/BTB domain, residues 10-110 of the protein of 237 residues (UniProt Q8NC69); cDNA NM_153331; also called KCTD6BTB; source: E. coli BL21(DE3) Star, purified
# Molecular target: the molecule itself
# Experiment: SEC-MALS; 500 uL sample at 1 mg/mL on Superdex 75 10/30 in 50 mM Tris-HCl, 0.15 M NaCl, pH 8.0, online triple-angle static light scattering (MiniDAWN Treos)
protein,measurement,value
B1,stoichiometry N,4
